The emibetuzumab library of Makowski et al. (2022)

B1: VH:VL chains; a variant is named by its letters at X, in order (parent)
chain 1: QVQLVQSGAEVKKPGASVKVSCKASGYTFTDYXMHWVRQAPGQGLEWMGXVNPNXXXTTYNQKFEGRVTMTTDTSTSTAYMELRSLRSDDTAVYYCARXNXLDXWGQGTTVTVSS
chain 2: DIQMTQSPSSLSASVGDRVTITCSVSSSVSSIYLHWYQQKPGKAPKLLIYSTSNLASGVPSRFSGSGSGTDFTLTISSLQPEDFATYYCQVYSGYPLTFGGGTKVEIK

Variants of: B1
Assay: yeast display scFab, FACS + sequencing
Outline: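 For the non-specific binding call, a heavy-chain CDR mutant scFab library on the yeast surface was FACS-sorted and samples from two replicates were deep sequenced. Cells were labelled with anti-Myc and either biotinylated ovalbumin (260 μg/mL in PBSB, 3 h, room temperature) or soluble membrane proteins (130 μg/mL, 20 min on ice), with gates on the top 25% and bottom 10% of binders. With membrane protein and ovalbumin samples pooled, a sequence in ≥3 of 4 positive samples and no negatives was scored positive, and the converse rule scored negatives.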

Row | Variant | non-specific binding call
1 | VRAGGAWV | binds
2 | YRAKGALS | binds
3 | YRAKGALA | binds
4 | YRAKGALF | binds
5 | YRAGGDAD | binds
6 | ARAGSAWA | binds
7 | DRAGDYLY | no binding
8 | DRAGDYLV | no binding
9 | YRARGSGY | binds
10 | YRARGSGV | binds
11 | YRAGSASD | binds
12 | YRAGDSWD | no binding
13 | YRAGDAAD | no binding
14 | FRARGSGA | binds
15 | VRAGGDVF | no binding
16 | YRAGGAAF | binds
17 | YRAGDFGV | no binding
18 | VRAGDDSD | no binding
19 | YRAKSALV | binds
20 | YRAKGVGA | binds
21 | VRAKGAGY | binds
22 | VRAGGDWV | no binding
23 | FRAGGAVY | binds
24 | FRAGGAVD | binds
25 | VRAGGSVA | binds

Row | Variant | non-specific binding call
26 | VRAGDALV | no binding
27 | FRAGGSGA | binds
28 | FRAGGSGD | binds
29 | VRARGAGF | binds
30 | YRAGSSAD | binds
31 | YRAGTSGD | binds
32 | FRAGSSWD | binds
33 | VRAGDAGV | no binding
34 | VRAGDAGA | no binding
35 | YRAGGDWY | binds
36 | VRAGDDVA | no binding
37 | VRAGDDVD | no binding
38 | VRAGDDVF | no binding
39 | VRAGAFSV | no binding
40 | SRARDFGY | no binding
41 | YRAGTAAA | binds
42 | YRAGGALS | binds
43 | VRAGDSGY | no binding
44 | YRARGDGV | no binding
45 | YRAKGSSS | binds
46 | YRAGGSWF | binds
47 | VRARGAWF | binds
48 | YRARGDLD | binds
49 | FRAGSAWS | binds
50 | ARAGDDAV | no binding

Row | Variant | non-specific binding call
51 | DRAGDAAA | no binding
52 | DRAGDAAV | no binding
53 | VRARGSSF | binds
54 | FRAGSSGV | binds
55 | YRAGDSGY | no binding
56 | DRAGDAGA | no binding
57 | DRAGDAGY | no binding
58 | DRAGDAGV | no binding
59 | DRAGDAGS | no binding
60 | YRAGGAGY | binds
61 | FRAGGAGA | binds
62 | FRAGGAGV | binds
63 | VRAGGSGD | binds
64 | DRAGDDAV | no binding
65 | YRAKSAVF | binds
66 | YRARGFGA | binds
67 | YRARGFGV | binds
68 | YRAGASLA | binds
69 | FRARGAAV | binds
70 | FRARGAAY | binds
71 | VRAGSSWD | binds
72 | YRAKDALA | no binding
73 | FRAGGVGV | binds
74 | YRAGDSVD | no binding
75 | SRAGDYLV | no binding

Row | Variant | non-specific binding call
76 | VRAGDSSV | no binding
77 | VRAGDSSA | no binding
78 | YRAGGDSA | no binding
79 | YRARGAAY | binds
80 | YRARGAAS | binds
81 | YRAGGASA | binds
82 | VRAGGDAA | no binding
83 | VRAGGDAV | no binding
84 | DRAGDSWD | no binding
85 | DRAGDSWA | no binding
86 | YRAGGVGF | binds
87 | YRAGGVGD | binds
88 | YRAGGVGS | binds
89 | DRAGDAVS | no binding
90 | DRAGDAVD | no binding
91 | YRAGSSGV | binds
92 | YRAGSSGD | binds
93 | YRAGSSGA | binds
94 | DRAGDSLD | no binding
95 | DRAGDSLV | no binding
96 | FRARGAGS | binds
97 | FRARGAGV | binds
98 | FRARGAGA | binds
99 | VRARGDGY | no binding
100 | YRAGTAVD | binds

Row | Variant | non-specific binding call
101 | YRAGTAVS | binds
102 | YRARGAVA | binds
103 | YRARGAVS | binds
104 | FRAGGAWV | binds
105 | FRAGGAWS | binds
106 | FRAGGAWY | binds
107 | DRAGDASD | no binding
108 | YRAKGSGV | binds
109 | YRAKGSGD | binds
110 | DRAGGAGD | no binding
111 | FRAGDYLV | no binding
112 | ARAGGAAA | binds
113 | VRAGADVY | no binding
114 | VRAGADVV | no binding
115 | YRAGGYAA | binds
116 | FRAGGSAA | binds
117 | FRAGGSVD | binds
118 | ARAGDAVA | no binding
119 | ARAGDAVV | no binding
120 | YRAGASAD | binds
121 | YRAGASAV | binds
